Experimental data published in patent US10098870B2 (JENKEM TECHNOLOGY CO., LTD. (BEIJING), priority 2013, dated 2018).
Values joined by “and” are separate entries in the source; they are usually repeats but may differ in a detail not shown here. Equal values may be shown once. “Also recorded” adds a separate entry of the source.

What was measured:
[1] = test system: human hepatoma cell plc/prf/5; assay: Anti-tumor effect on subcutaneous transplantation tumor model of plc/prf/5 in NOD/SCID mice (Example 5); assay type: in vivo, NOD/SCID mouse; settings: for Tumor volume: 10 mg/kg (counted with rapamycin) i.v. Q2W×2W, mean ± SE
Protocol: The tumor cells were passaged with digestion by trypsin-EDTA twice a week. The cells in the exponential growth phase were collected, counted, and used for inoculation.
1×10^7 of plc/prf/5 tumor cells were suspended in 0.1 ml of mixed solution (PBS:Matrigel=4:1), inoculated to each NOD/SCID mouse at the right shoulder.
Wherein Q2W×2W represents intravenous injection […] for 2 weeks, the same below. (2) Experimental Results

[2] = Body weight, survival and tolerance of mice bearing H460 (Example 8); settings: mean ± SE
Protocol: 5.0×10^6 of H460 tumor cells were suspended in 0.1 ml of PBS, inoculated to each nude mouse at the right shoulder, and there were totally 34 mice inoculated. 8 days later the mean tumor volume was desired to reach about 143 mm^3, the mice with a smaller or larger tumor were removed and the remaining 24 mice were divided into groups randomly according to tumor volume and administrated.

[3] = Body weight, survival and tolerance of mice bearing A549 (Example 10); settings: mean ± SE;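 further: nude mice, each given 1.0×10^7 A549 tumor cells in the right shoulder region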
Protocol: 1.0×10^7 of A549 tumor cells were suspended in 0.1 ml of PBS, inoculated to each nude mouse at the right shoulder, and there were totally 36 mice inoculated.

[4] = Body weight, survival and tolerance of mice bearing Calu-6 (Example 9); settings: mean ± SE;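 further: nude mice bearing Calu-6 tumours, established by implanting 5.0×10^6 cells at the right shoulder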
Protocol: 5.0×10^6 of Calu-6 tumor cells were suspended in 0.1 ml of PBS, inoculated to each nude mouse at the right shoulder, and there were totally 34 mice inoculated.

[5] = test system: human hepatoma cell plc/prf/5; assay: Anti-tumor effect on xenograft tumor model of plc/prf/5 in nude mice (Example 6); settings: for T/C (%) RTV / T/C (%) TW: vs physiological saline; for RTV / Tumor weight: 38th day, Mean ± SEM; for Tumor volume: mean ± SE
Excerpt: 10 days later the mean tumor volume was desired to reach about 161 mm^3, the mice with a smaller or larger tumor were removed and the remaining 24 mice were divided into groups randomly according to tumor volume and administrated.
Wherein QW×4W represents intravenous injection once a week for 4 weeks, BIW×4W represents intravenous injection once every two weeks for 4 weeks, the same below.

[6] = day 24 after inoculation, 30 mg/kg i.v. BIW×4W
[7] = day 24 after inoculation, 45 mg/kg i.v. QW×4W
[8] = day 28 after inoculation, 30 mg/kg i.v. BIW×4W
[9] = day 28 after inoculation, 45 mg/kg i.v. QW×4W
[10] = day 31 after inoculation, 30 mg/kg i.v. BIW×4W
[11] = day 31 after inoculation, 45 mg/kg i.v. QW×4W
[12] = day 35 after inoculation, 30 mg/kg i.v. BIW×4W
[13] = day 35 after inoculation, 45 mg/kg i.v. QW×4W
[14] = day 38 after inoculation, 30 mg/kg i.v. BIW×4W
[15] = day 42 after inoculation, 30 mg/kg i.v. BIW×4W
[16] = day 42 after inoculation, 45 mg/kg i.v. QW×4W
[17] = day 17 after inoculation, 30 mg/kg i.v. BIW×4W
[18] = day 17 after inoculation, 45 mg/kg i.v. QW×4W

## monomethoxy polyethylene glycol (20K)-glutamic acid dipeptide-rapamycin conjugate [LPR-2]
[1]; 10 mg/kg counted with rapamycin, i.v. Q2W×2W
  anti-tumor effect (in words): stronger antitumor activity than that of polyethylene glycol-rapamycin (LPR-1); also recorded: a certain anti-tumor effect; also recorded: obviously the maximum anti-tumor effect; also recorded: anti-tumor effect significantly higher than that of LPR-1
[1]; 10 mg/kg i.v. Q2W×2W
  Days for delaying tumor growth (to 1000 mm^3): >7 days
[1]; day 24 after inoculation
  Tumor volume: 353 ± 54 mm^3
[1]; day 27 after inoculation
  Tumor volume: 404 ± 89 mm^3
[1]; day 31 after inoculation
  Tumor volume: 391 ± 72 mm^3
[1]; day 34 after inoculation
  Tumor volume: 456 ± 77 mm^3
[1]; day 38 after inoculation
  Tumor volume: 536 ± 77 mm^3
[2]; day 8 after inoculation, 30 mg/kg i.v. BIW×3W
  Body weight of animal: 20.5 ± 0.5 g
[2]; day 8 after inoculation, 45 mg/kg i.v. QW×3W
  Body weight of animal: 20.2 ± 0.4 g
[2]; day 12 after inoculation, 30 mg/kg i.v. BIW×3W
  Body weight of animal: 20.3 ± 0.5 g
[2]; day 12 after inoculation, 45 mg/kg i.v. QW×3W
  Body weight of animal: 19.8 ± 0.3 g
[2]; day 15 after inoculation, 30 mg/kg i.v. BIW×3W
  Body weight of animal: 20.7 ± 0.4 g
[2]; day 15 after inoculation, 45 mg/kg i.v. QW×3W
  Body weight of animal: 20.9 ± 0.3 g
[2]; day 19 after inoculation, 30 mg/kg i.v. BIW×3W
  Body weight of animal: 21.0 ± 0.5 g
[2]; day 19 after inoculation, 45 mg/kg i.v. QW×3W
  Body weight of animal: 20.7 ± 0.3 g
[2]; day 22 after inoculation, 30 mg/kg i.v. BIW×3W
  Body weight of animal: 20.7 ± 0.4 g
[2]; day 22 after inoculation, 45 mg/kg i.v. QW×3W
  Body weight of animal: 20.4 ± 0.3 g
[2]; day 26 after inoculation, 30 mg/kg i.v. BIW×3W
  Body weight of animal: 20.9 ± 0.5 g
[2]; day 26 after inoculation, 45 mg/kg i.v. QW×3W
  Body weight of animal: 21.4 ± 0.3 g
[2]; day 29 after inoculation, 30 mg/kg i.v. BIW×3W
  Body weight of animal: 21.1 ± 0.4 g
[2]; day 29 after inoculation, 45 mg/kg i.v. QW×3W
  Body weight of animal: 22.1 ± 0.3 g
[3]; [6]
  Body weight of animal: 21.6 ± 0.5 g
[3]; [7]
  Body weight of animal: 20.9 ± 0.3 g
[3]; [8]
  Body weight of animal: 20.9 ± 0.4 g
[3]; [9]
  Body weight of animal: 20.8 ± 0.1 g
[3]; [10]
  Body weight of animal: 21.4 ± 0.4 g
[3]; [11]
  Body weight of animal: 21.1 ± 0.2 g
[3]; [12]
  Body weight of animal: 21.8 ± 0.4 g
[3]; [13]
  Body weight of animal: 21.1 ± 0.3 g
[3]; [14]
  Body weight of animal: 21.6 ± 0.4 g
[3]; day 38 after inoculation, 45 mg/kg i.v. QW×4W
  Body weight of animal: 21.6 ± 0.3 g
[3]; [15]
  Body weight of animal: 22.5 ± 0.3 g
[3]; [16]
  Body weight of animal: 22.0 ± 0.3 g
[3]; day 45 after inoculation, 30 mg/kg i.v. BIW×4W
  Body weight of animal: 22.2 ± 0.3 g
[3]; day 45 after inoculation, 45 mg/kg i.v. QW×4W
  Body weight of animal: 22.4 ± 0.3 g
[3]; day 49 after inoculation, 30 mg/kg i.v. BIW×4W
  Body weight of animal: 22.0 ± 0.3 g
[3]; day 49 after inoculation, 45 mg/kg i.v. QW×4W
  Body weight of animal: 21.5 ± 0.3 g
[3]; day 52 after inoculation, 30 mg/kg i.v. BIW×4W
  Body weight of animal: 22.0 ± 0.3 g
[3]; day 52 after inoculation, 45 mg/kg i.v. QW×4W
  Body weight of animal: 22.1 ± 0.3 g
[4]; day 14 after inoculation, 30 mg/kg i.v. BIW×4W
  Body weight of animal: 20.9 ± 0.4 g
[4]; day 14 after inoculation, 45 mg/kg i.v. QW×4W
  Body weight of animal: 20.6 ± 0.4 g
[4]; [17]
  Body weight of animal: 21.0 ± 0.4 g
[4]; [18]
  Body weight of animal: 20.0 ± 0.4 g
[4]; day 21 after inoculation, 30 mg/kg i.v. BIW×4W
  Body weight of animal: 21.7 ± 0.4 g
[4]; day 21 after inoculation, 45 mg/kg i.v. QW×4W
  Body weight of animal: 19.9 ± 0.6 g
[4]; [6]
  Body weight of animal: 21.6 ± 0.3 g
[4]; [7]
  Body weight of animal: 20.9 ± 0.5 g
[4]; [8]
  Body weight of animal: 22.4 ± 0.4 g
[4]; [9]
  Body weight of animal: 21.3 ± 0.6 g
[4]; [10]
  Body weight of animal: 21.6 ± 0.4 g
[4]; [11]
  Body weight of animal: 20.7 ± 0.6 g
[4]; [12]
  Body weight of animal: 22.2 ± 0.4 g
[4]; [13]
  Body weight of animal: 21.8 ± 0.6 g
[4]; [14]
  Body weight of animal: 22.3 ± 0.4 g
[4]; [15]
  Body weight of animal: 22.4 ± 0.3 g
[4]; [16]
  Body weight of animal: 21.5 ± 0.5 g
[5]; 30 mg/kg i.v. BIW×4W
  TGD (to 1,000 mm^3): >12
  T/C (%) RTV: 29%
  T/C (%) TW: 27%
  RTV: 3.48 ± 0.68
  Tumor weight: 517 ± 67 mg
[5]; 45 mg/kg i.v. QW×4W
  TGD (to 1,000 mm^3): >12
  T/C (%) RTV: 46%
  T/C (%) TW: 45%
  RTV: 5.61 ± 0.67
  Tumor weight: 845 ± 87 mg
[5]; 5-FU 25 mg/kg, LPR-2 30 and 45 mg/kg
  anti-tumor effect (in words): significant anti-tumor effect
[5]; day 10 after inoculation, 30 mg/kg i.v. BIW×4W
  Tumor volume: 171 ± 15 mm^3
[5]; day 10 after inoculation, 45 mg/kg i.v. QW×4W
  Tumor volume: 171 ± 19 mm^3
[5]; day 13 after inoculation, 30 mg/kg i.v. BIW×4W
  Tumor volume: 176 ± 11 mm^3
[5]; day 13 after inoculation, 45 mg/kg i.v. QW×4W
  Tumor volume: 180 ± 25 mm^3
[5]; [17]
  Tumor volume: 217 ± 25 mm^3
[5]; [18]
  Tumor volume: 234 ± 28 mm^3
[5]; day 20 after inoculation, 30 mg/kg i.v. BIW×4W
  Tumor volume: 260 ± 30 mm^3
[5]; day 20 after inoculation, 45 mg/kg i.v. QW×4W
  Tumor volume: 257 ± 24 mm^3
[5]; [6]
  Tumor volume: 303 ± 32 mm^3
[5]; [7]
  Tumor volume: 399 ± 25 mm^3
[5]; day 27 after inoculation, 30 mg/kg i.v. BIW×4W
  Tumor volume: 317 ± 42 mm^3
[5]; day 27 after inoculation, 45 mg/kg i.v. QW×4W
  Tumor volume: 496 ± 39 mm^3
[5]; [10]
  Tumor volume: 395 ± 39 mm^3
[5]; [11]
  Tumor volume: 607 ± 60 mm^3
[5]; day 34 after inoculation, 30 mg/kg i.v. BIW×4W
  Tumor volume: 437 ± 44 mm^3
[5]; day 34 after inoculation, 45 mg/kg i.v. QW×4W
  Tumor volume: 640 ± 93 mm^3
[5]; day 38 after inoculation, 30 mg/kg i.v. BIW×4W, 30 mg/kg
  Tumor volume: 553 mm^3 and 553 ± 63 mm^3
